Data on 3 molecules can be found in patent US20240352477A1 (ACADEMIA SINICA, published 2024).

One assay has as its target T1, HXK5-GFP (Ubi:HXK5-GFP) (rice, UniProt Q5W676 1-507).
T1 construct: Expressed transiently in rice protoplasts; not shown: GFP reporter (pUbi:ccdB-GFP vector)
The assay is described as follows: co-IP with RFP-Trap from co-transfected rice protoplasts, immunoblot. On the procedure:
(§1) FIGS. 13a to 13b. CIPK15 and HXK5/6 interact and localize at mitochondria under aerobic and hypoxic conditions. (FIG. 13a) Rice protoplasts were co-transfected with Ubi:CIPK15-mCherry and Ubi:HXK5-GFP, Ubi:HX6-GFP or Ubi:GFP (as negative control), before being cultured in medium containing 400 mM glucose with shaking (aerobic) for 12 h. Then, total proteins were extracted and pulled down using RFP trap®. Anti-RFP and anti-GFP antibodies were used to detect co-immunoprecipitated (co-IP) CIPK15-mCherry and HXK5-GFP or GFP, respectively. (FIG. 13b) Rice protoplasts were transfected with Ubi:CIPK15-mCherry, Ubi:HXK5-mCherry or Ubi:HXK6-mCherry and stained with the mitochondrial marker MitoTracker® Green FM, before being examined under confocal microscopy. T: Transmission image. Scale bar=[…]. […]
(§2) To explore these latter interactions in vivo using co-IP assays, we co-transfected rice protoplasts with Ubi:CIPK15-mCherry and Ubi:HXK5-GFP, Ubi:HXK6-GFP or Ubi:GFP (negative control) constructs. […] Our anti-RFP antibodies detected CIPK15-mCherry proteins in all eluents of CIPK15-mCherry co-IP fractions, but anti-GFP antibodies detected HXK5-GFP and HXK6-GFP present in the CIPK15-mCherry complex (FIG. 13a).

The next assay has as its target T2, HXK6-GFP (Ubi:HXK6-GFP) (rice, UniProt Q8LQ68 1-506).
T2 construct: Expressed transiently in rice protoplasts; also called Ubi:HX6-GFP; not shown: GFP reporter (pUbi:ccdB-GFP vector)
Described as above. How it is done: as §1, §2

Assay [1] addresses T3, HXK5-nYFP (CaMV35S:HXK5-nYFP) (rice, UniProt Q5W676 1-507).
T3 construct: BiFC construct in rice protoplasts; not shown: N-terminal half of YFP (nYFP, p35S:ccdB-nYFP vector)
The assay is described as follows: bimolecular fluorescence complementation (BiFC) in rice protoplasts. On the procedure:
(§3) FIGS. 3a to 3g. HXK6 and VDAC1 interact with CIPK15 on mitochondria and suppress CIPK15-regulated promoters. (FIG. 3a) BiFC assay in which rice protoplasts were co-transfected with CaWV35S:cYFP-CIPK15 or CaWV-nYFP (negative control) and CaMV35S:HXK5/6-nYFP or CaMV35S:cYFP (negative control). (FIG. 3b, FIG. 3c, FIG. 3f) Rice protoplasts were transfected with plasmids, cultured in medium containing 400 mM glucose with shaking for 12 h, and then examined under confocal microscopy. Scale bar=[…]. C: cytoplasm; Mt: mitochondria. (FIG. 3b) Rice protoplasts were co-transfected with Ubi:CIPK15-mTagBFP and Ubi:HXK6-mCherry and stained with the mitochondrial marker MitoTracker® Green FM. (FIG. 3c) Rice protoplasts were co-transfected with Ubi:CIPK15-mCherry and Ubi:GFP, Ubi:HXK6-GFP, or Ubi:HXK6(Ri) constructs. (FIG. 3d, FIG. 3g) Rice protoplasts were co-transfected with effector and reporter plasmids, cultured in medium contained 400 mM glucose with shaking, and assayed for luciferase activity. (FIG. 3e) Rice protoplasts were co-transfected with Ubi:VDAC1-GFP, Ubi:CIPK15-HA and Ubi:HXK6-GFP or Ubi:HXK6-mCherry, cultured in medium containing 400 mM glucose with shaking for 12 h, and total proteins were extracted and pulled down using GFP trap®. Anti-GFP, anti-HA and anti-mRFP antibodies were used to detect HXK6-GFP or VDAC1-GFP, CIPK15-HA, and HXK6-mCherry, respectively. […]

Assay [2] deals with T4, HXK6-nYFP (CaMV35S:HXK6-nYFP) (rice, UniProt Q8LQ68 1-506).
T4 construct: BiFC construct in rice protoplasts; not shown: N-terminal half of YFP (nYFP, p35S:ccdB-nYFP vector)
The assay is described as above. How it is done:
as §3

Assay [3] addresses T5, HXK6-mCherry (Ubi:HXK6-mCherry) (rice, UniProt Q8LQ68 1-506).
T5 construct: Expressed transiently in rice protoplasts; not shown: mCherry reporter (pUbi:ccdB-mCherry vector)
The assay is described as follows: co-IP with GFP-Trap from co-transfected rice protoplasts, immunoblot. How it is done: Samples were extracted from rice protoplasts in lysis buffer containing 150 mM NaCl, 0.5% NP4-0, 20 mM Tris-HCl (pH 7.5), and protease inhibitor (Roche) for 1 h at 4° C. and centrifuged at 13,000 rpm for 30 min at 4° C. Supernatants were transferred to new tubes and GFP- or RFP-conjugated proteins were pulled down with GFP-Trap®_MA beads or RFP-Trap®_MA beads. Precipitated proteins were subjected to immunoblot analysis using anti-RFP and anti-GFP antibodies.
For orientation: In western blotting, separated proteins are transferred to a membrane and probed.

T3 sequence (Q5W676 whole entry): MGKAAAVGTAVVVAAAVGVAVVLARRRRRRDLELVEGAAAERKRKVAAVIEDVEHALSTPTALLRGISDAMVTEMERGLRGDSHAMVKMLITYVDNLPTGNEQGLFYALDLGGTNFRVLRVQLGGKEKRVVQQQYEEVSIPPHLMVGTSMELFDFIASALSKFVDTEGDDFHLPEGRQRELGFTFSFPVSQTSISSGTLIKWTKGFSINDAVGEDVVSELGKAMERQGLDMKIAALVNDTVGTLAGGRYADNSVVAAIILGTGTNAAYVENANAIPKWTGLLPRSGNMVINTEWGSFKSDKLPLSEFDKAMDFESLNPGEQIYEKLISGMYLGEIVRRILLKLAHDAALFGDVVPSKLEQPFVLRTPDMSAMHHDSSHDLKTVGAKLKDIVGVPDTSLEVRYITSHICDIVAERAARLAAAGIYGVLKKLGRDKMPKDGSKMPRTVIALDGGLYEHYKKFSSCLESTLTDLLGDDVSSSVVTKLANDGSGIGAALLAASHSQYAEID
T1 sequence (Q5W676 whole entry): as above
T4 sequence (Q8LQ68 whole entry): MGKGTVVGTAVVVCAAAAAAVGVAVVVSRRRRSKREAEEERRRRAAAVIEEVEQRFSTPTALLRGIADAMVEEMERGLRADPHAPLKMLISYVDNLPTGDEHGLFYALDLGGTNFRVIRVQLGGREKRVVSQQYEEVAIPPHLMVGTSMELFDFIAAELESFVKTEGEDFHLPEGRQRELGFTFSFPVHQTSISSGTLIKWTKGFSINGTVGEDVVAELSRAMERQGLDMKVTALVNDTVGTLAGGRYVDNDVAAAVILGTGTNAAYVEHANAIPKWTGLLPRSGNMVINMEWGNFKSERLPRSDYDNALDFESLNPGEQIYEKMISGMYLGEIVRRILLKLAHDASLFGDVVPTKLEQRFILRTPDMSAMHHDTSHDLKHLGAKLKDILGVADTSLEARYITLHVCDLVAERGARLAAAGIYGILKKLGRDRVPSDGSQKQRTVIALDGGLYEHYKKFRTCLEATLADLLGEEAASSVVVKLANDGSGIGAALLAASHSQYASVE
T5 sequence (Q8LQ68 whole entry): as above
T2 sequence (Q8LQ68 whole entry): as above

B1: CIPK15-mCherry (Ubi:CIPK15-mCherry) (enzyme)
chain: MESRGKILMERYELGRLLGKGTFGKVHYARNLESNQSVAIKMMDKQQILKVGLSEQIRREITTMRLVAHKNIVQLHEVMATRNKIYFVMEYVKGGELFEKVAKRGKLTEVVAHKYFQQLISAVDYCHSRGVYHRDLKPENLLLDENENLKVSDFGLSALSESKRQDGLLHTTCGTPAYVAPEVISKIGYDGAKSDIWSCGVILFVLVAGYLPFQGPNLMEMYRKIQHGEFRCPGWFSRKLQKLLYKIMDPNPSTRISIQKIKESTWFRKGPEENRILKERTLNENTTKNVAPVLGVRRKKNAHEDVKPMSVTNLNAFEIISFSKGFDLSGMFIVKEWRNEARFTSDKSASTIISKLEDVAKALNLRVRKKDNGVVKMQGRKEGRNGVLQFDIEIFEVTTSYHIIEMKQTSGDSLEYRQLLEEGIRPALKDIVLA
notes: Expressed transiently in rice protoplasts; not shown: mCherry reporter (pUbi:ccdB-mCherry vector)
On to B1, for which the binding result with HXK5-GFP (Ubi:HXK5-GFP) and with HXK6-GFP (Ubi:HXK6-GFP) was “binds” throughout.

B2: cYFP-CIPK15 (CaMV35S:cYFP-CIPK15) (enzyme)
chain: B1 chain
notes: BiFC construct in rice protoplasts; not shown: C-terminal half of YFP (cYFP, p35S:cYFP-ccdB vector)
Turning to B2, the binding result in assay [1] and in assay [2] was “binds” throughout.

B3: VDAC1-GFP (Ubi:VDAC1-GFP) (other, rice, UniProt Q6K548 2-274, looked up)
chain: VGPGLYPEIGKKARDLLYRDYQTDHKFTLTTYTSNGVAITATSTKKADLIFGEIQSQIKNKNITVDVKANSDSNVVTTVTVDELTPGLKSILSFAVPDQRSGKFELQYSHDYAGVSASIGLTASPVVNLSSVFGTKALAVGADVSLDTATGNLTKYNAGLSFSNDDLIASLNLNNKGDSLTASYYHIVNHSATAVGAELTHSFSSNENSLTFGTQHTLDPLTVVKARFNNSGKASALLQHEWRPKSVWTISAEVDTKAIDKSSKVGIAVALKP
notes: Expressed transiently in rice protoplasts and pulled down with GFP-Trap; not shown: GFP reporter (pUbi:ccdB-GFP vector)
B3: the binding result in assay [3] is given as “binds”.
